Experimental findings from paper PMC5459593 (2017) are described below.

In experiment [1] the target is T1, Notch1(8-12) EGF8-12 (Rattus norvegicus, UniProt Q07008).
T1 chain: LLCLT
Briefly: SPR. In general terms: Surface plasmon resonance follows binding to a sensor surface in real time, without labels.

The target in experiment [2] is T2, Notch1(11-12) EGF11-12 (Rattus norvegicus, UniProt Q07008).
T2 chain: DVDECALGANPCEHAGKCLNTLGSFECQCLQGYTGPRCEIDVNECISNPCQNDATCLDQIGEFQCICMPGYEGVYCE
Nature of the experiment: SPR.

B1: DLL4(N-3) N-EGF3 (protein)
chain: SGIFQLRLQEFANERGMLANGRPCEPGCRTFFRICLKHYQATFSEGPCTFGNVSTPVLGTNSFVIRDKNSGSGRNPLQLPFNFTWPGTFSLNIQAWHTPGDDLRPETSPGNSLISQIIIQGSLAVGKNWKSDEQNNTLTRLRYSYRVVCSDNYYGDSCSRLCKKRDDHFGHYECQPDGSLSCLPGWTGKYCDQPICLSGCHEQNGYCSKPDECNCRPGWQGPLCNECIPHNGCRHGTCTIPWQCACDEGWGGLFCDQDLNYCTHHSPCKNGSTCSNSGPRGYTCTCLPGYTGEHCE
As for B1, the Kd (as a rule, the concentration at which binding is half-saturated) in experiment [1] came out at 9.7 µM; in experiment [2] it was 12.8 µM.
